Results from ChEMBL document CHEMBL1155741, “Ellagitannins and hexahydroxydiphenoyl esters as inhibitors of vertebrate squalene epoxidase” (J Nat Prod, 2001).

Substrate: CC(C)=CCC/C(C)=C/CC/C(C)=C/CC/C=C(\C)CC/C=C(\C)CCC=C(C)C
Assay: Activity of C-terminal hexahistidine-tagged rat recombinant squalene epoxidase without N-terminal putative membrane domain expressed in Escherichia coli

B1: Squalene monooxygenase (Rattus norvegicus), P52020 (protein)
chain: MWTFLGIATFTYFYKKCGDVTLANKELLLCVLVFLSLGLVLSYRCRHRNGGLLGRHQSGSQFAAFSDILSALPLIGFFWAKSPPESEKKEQLESKRRRKEVNLSETTLTGAATSVSTSSVTDPEVIIIGSGVLGSALATVLSRDGRTVTVIERDLKEPDRILGECLQPGGYRVLRELGLGDTVESLNAHHIHGYVIHDCESRSEVQIPYPVSENNQVQSGVAFHHGKFIMSLRKAAMAEPNVKFIEGVVLRLLEEDDAVIGVQYKDKETGDTKELHAPLTVVADGLFSKFRKNLISNKVSVSSHFVGFIMKDAPQFKANFAELVLVDPSPVLIYQISPSETRVLVDIRGELPRNLREYMTEQIYPQIPDHLKESFLEACQNARLRTMPASFLPPSSVNKRGVLLLGDAYNLRHPLTGGGMTVALKDIKIWRQLLKDIPDLYDDAAIFQAKKSFFWSRKRSHSFVVNVLAQALYELFSATDDSLRQLRKACFLYFKLGGECLTGPVGLLSILSPDPLLLIRHFFSVAVYATYFCFKSEPWATKPRALFSSGAILYKACSIIFPLIYSEMKYLVH
With B1 the Km was 3.8 µM and the kcat was 0.0683 s⁻¹.
